Assays:
[1] = target: HLA-DP4 molecule DP401 (DPA1*0103/DPB1*0401) (human) (UniProt P20036); experiment: competition ELISA, tracer bUNK1
[2] = target: HLA-DP4 molecule DP401 (DPA1*0103/DPB1*0401) (human) (UniProt P20036); experiment: competition ELISA
[3] = target: HLA-DP4 molecule DP402 (DPA1*0103/DPB1*0402) (human) (UniProt P20036); experiment: competition ELISA, tracer bUNK1
[4] = target: HLA-DP4 molecule DP402 (DPA1*0103/DPB1*0402) (human) (UniProt P20036); experiment: competition ELISA; capped, '>10 000' in Table VII
[5] = target: HLA-DP4 molecule DP401 (DPA1*0103/DPB1*0401) (human) (UniProt P20036); experiment: competition ELISA; capped, '>10 000' in Table VII
[6] = target: HLA-DP4 molecule DP402 (DPA1*0103/DPB1*0402) (human) (UniProt P20036); experiment: competition ELISA

| Substance | IC50 [1] | IC50 [2] | IC50 [3] | IC50 [4] | IC50 [5] | relative binding activity vs UNK1 (IC50 ratio) [3] | IC50 [6] |
| --- | --- | --- | --- | --- | --- | --- | --- |
| Api m1 81-98 (peptide) | 2.25 µM | 2.25 µM |  |  |  |  |  |
| Api m1 73-90 (peptide) | > 10 µM |  | > 10 µM | > 10 µM | 10 µM |  |  |
| Api m1 65-82 (peptide) | 50 µM | 50 µM | 6.5 µM |  |  | 371 fold | 6.5 µM |
| Api m1 69-86 (peptide) | > 10 µM |  | > 10 µM | > 10 µM | 10 µM |  |  |
